In the DeepSol protein solubility set:

test: soluble on expression in E. coli; label from the status in PepcDB or PDB records

Sequence	soluble on expression in E. coli
MFPSGHNEKWTRGYQRENSLLHHDDEFRSFQRRTDCPQHFYQQTNGYEHSLFGEKAGFHEASAQNLLMHLASQISPMEFAKLQLELLASQNKQRPHRGAGFGSYLMSPPATVSSSRSTVLCCNPAPPYASHCQSPAASDDFGHHFGSFDSMSAYNFHNNNQQQRREAHVSRDGKSFDQGNIYTAEDVHTVVKNHRNENNQRVVSNKVFVGGISHMMNRKIINKFFGQFGTVFVDWPVKQKPNSRGKSIAIGSYSYLFLVYSDEQSVIKLMSACHRNSQNDFFVSVPGFRDMIQIRPWFIYNGFYILEKARHNRIIDIHRTVFLGGLPRIVTAEEIAQMFSEFGVVLLVTIDIDQDYGYPKGAARVTFERDSAFNRALEKKFLKFDNIDSSKTMIEIKPYVMEDVGCDECGGLWFNPFLSIYDHLKCAKDDHQKEQKMAEIKNFNMWSSRSPFSLNSGDGHDDLITKMDAGFKKNCNLACTYSNRENEKNETEMGARKFLEMVKSFGLEKEKTVTVNGNEYPIGPDLWDKFLPAPKYDVGTEPVRMNPEAKLQQFLRMKRTNVYSNKSAYCKEAPCRQYYCPSCSNKLHSGPNQHTLLPAG	soluble
MKVLLINGSPHAKGCTYTALSEVAKALEEENIETEIFQIGTKPVRGCIGCGTCSKTGSGKCVFDDDTLNAGLEKAKTADGFIFGSPVHYAAASGALTSFLDRFFYAGKDFAYKPGAAIVSCRRGGAAAAFDQLNKYFTIANMPIVSSQYWNMVHGNTPEEVKQDLEGMQTMRTLGKNMAWLLKSIQAGKEAGVKLPEKEQTIRTNFIRLEHHHHHH	soluble
MAHHHHHHMKDEQISCYYLTEKGKNKCFKNIKLITFDLDHTIWNIDALLNYADNECYKYMEQNYKRLYDYLSKEYALSMTNLVKELLERNIDMNKDGVQILTRIRTDALKYLAKQTNYDEIKFASEIQKLWKEKKKDVHLFISPGTLEYLRELKNRGYILGAITNGDSDVNEIKFLNEIFSFVVRSMDYNFAKPNVEIFNIAENLLKEKNINFHVDEWLHVGDDVYTDIMGAKNKNINCAWITMFREGREISHKEWYSYLKLKYEQNDNKQTLSQYDPYADGLFAKFRKKDVVLPFDYIDIEIRHCRDLDSILA	not soluble
MTYCLGVKLKDGLVAIADTRITSGTDTTTAKKLFVHESAHGSLFLMTSGLRSVRDKAITYFKEVLKDEHVVYNQLYEAVNAFGNQLRRVAEEDRKALYAAGFAFNLHTIVGGQLKNDEEPKMFLLYPEGNWIELTQTSPFMIIGNSGYGKPILNRTVKYESTLEEVLKAGFLSFDSTRVSANDVDFPLDVVVYYNNSFKMIEHRFEKKDMEIISTTWDNQLKQALDSVPEEWMNVVFDRKNVLLEHHHHHH	not soluble
MGSDKIHHHHHHVSEAIVFTSGKGGVGKTTVISNIGVELSQLDKKVIMLDTDMGLRNLDLVMGIEDKVNYNILDILNRSCRIRQAIIRNKKYPNLYVIPAAPSMDTLCSYEARFKILIEELKASFDYCLIDSPAGIDSGFWFSVSPADRAIVVTTPHVSAIHDARRCISLLDSAHLDDISVIVNAYDKHMVRRHQMISDNDITALLSTRIIGTIPYDKSVIICQNRGIPVREAKSRLSPVFARISGQIIHSSDDMRGAAV	not soluble
MSIITRLFNNSDFEKLNQLCKLYDDLGYPTNENDLKKRLKKITNHDDYFLLLLIKENKIIGLSGMCKMMFYEKNAEYMRILAFVIHSEFRKKGYGKRLLADSEEFSKRLNCKAITLNSGNRNERLSAHKLYSDNGYVSNTSGFTKQL	soluble
SLSPAMSFLKSFPPPGSADGLRLQQPDTEAVLNGKGLGTGTLYIAESRLSWLDGSGLGFSLEYPTISLHAVSRDPNAYPQEHLYVMVNAKLGEESKEPLSDEDEEDNDDVEPISEFRFVPSDKSALEAMFTAMCECQALHPDPEDEDSDDYDGEEYDVEAHEQGQGDIPTFYTYEEGLSHLTAEGQATLERLEGMLSQSVSSQYNMAGVRTEDSVRNYEDGMEVETTPTVAGQFEDADVDH	soluble
MGSDKIHHHHHHMQIGEVYFWTSTIKDWKNLLHQDKYKLLIIHCLKELVDRKMIKVYAFVIMPNHIHIVWEMLDQNGKEMPHASFNKKTAHEIVKDLKFNHPLVLPFFKVNEKEREYRIWQRDPLAIEMDSKKKAEQKIDYIHKNPLHERWNLAASPEEYYWSSAMYYQTGEDKFGFLTHYMERF	not soluble
MAHHHHHHMDTEAIKETAIREVCELSKTLKGTPFAITQRWKHIEALISTFERLLRRLELINLLCCEDEDSVSILKLYTQSQIASLEVLMKALMERGPNAAAFAAYAAGRLDEFVAVFTQSVGKTPRTNACVIADSGMRRWDQAAANGCEHNVVGNAAQNFLDLEVLLKTTLLTRGNQKGESKQCPLTKSDLSGYATVDDAPDRIKWAGGLLTVHKMYGWKEDGWSTNGRNVEFIKEAAEQFKEIKKVLEKQLPNGLDSIDALNAFLKREEPDAMMKDAIKTHQGWEEEKDDKTIIEKIKEIFGIGEPCAKIEFIETLIRTNVSARESGCTKQIDLFQLTTRQMEEVKERRLDQLRKTKTEAENYPRDMAKLSALKTNTNTKQGEYGECQFLCKRYKNAKAENEATDAAPNSPAAARKCRGKTENDCKDECKWDGNVCKNSDETSDYSRVCYSPLFPVLLLSLF	not soluble
GPGSMPAINREELDRRVEQIYDQVVAWRRYIHENPDLSFEEQPTAAYIKGELQKMDAEGRWLHISQPESNCVVADLKGGGGDGPIIALRADIDALPVEELTDVPFASKKQGVMHACGHDTHAAMLLGATKLLLEDAGRIKGTVRLLFQPAEEVPPGGAQMMIEKGCMEGVAMVFAEHIIPMKEGPTGTVLVKRGPFLSSSDTLHVEIIGRGGHASMPESSIDPIAIACLAVTALQQVVSRRMPPSKCPILTITTIASSSDSYNVIPDRVTLKGTLRTQDREVRENAKKAVAEVLHGICGSYGAMCSLNWLPGYDVTVNTDSAYDVGMRVFAQVLPSKDQVVVLSACMSPSEDFSEFAKVAPANYVGIGCYNPGKGCTAVNHNAKFCVDEEAMKVGVKVHYGTIHELLMQ	not soluble
LFTPHWIVRYLVENSLGRLWMLNRPESSLVDRMEYYIKPEKQETDFLKINSPEEIKICDPACGSGHMLVYAFDLLYAIYEEEGYTPSEIPEMILTHNLFGIEIDKRAGELAGFALAMKARGKDRRFFNKQVHPNICMLENVAFEQGELNDYIETVGRELFTNAHRATLLQFAEADNFGSLIRPVAKDISDLLHLLESKNLSGNLSLLSTHQKVLKALKQADYLSPKYHVVVANPPYMGGKGMNNRLKTFAQDNYPDSKSDTFAMFIERNLDLAVKKGMVAMITMQSWMFLSSFEKLRENILSNDTILSMAHFGARAFDSIGGEVVSTTAFVLENAQHPDYKGSYLRLVDGN	not soluble
MGSDKIHHHHHHMDISIARTFLEVVKTGSFVNAAANLNISQTAVSARIRVLEEQLDRPMFVRNKAGARLTPAGEQFFRFATSLVQVWEAARTTVALPPGREAMVTIGAELSLWNPLLKHWLLWMRRECASVAIRTTIDRSERLMELVQDGSLDAAVLYGAPNRPGTLTELLFEEKLVLVRTTALSQPPGPEDLVGIDWGEDFAGSYRAAFPGGRNPVVAISYGPLALDYILEVGGSGYFRQGFVRPYLVDGRLELVPNSPEFAYPAYLVSSAKADRSMLDRIRAGLRAAASSAGV	not soluble
MGHHHHHHSHMANSMANSMGITTLDDPLGHMPERFDAFICYCPSDIQFVQEMIRQLEQTNYRLKLCVSDRDVLPGTCVWSIASELIEKRCRRMVVVVSDDYLQSKECDFQTKFALSLSPGAHQKRLIPIKYKAMKKEFPSILRFITVCDYTNPCTKSWFWTRLAKALSLP	soluble
EVQLQQSGPELKKPGETVKISCKATNYAFTDYSMHWVKQAPGGDLKYVGWINTETDEPTFADDFKGRFAFSLDTSTSTAFLQINNLKNEDTATYFCVRDRHDYGEIFTYWGQGTTVTVSA	soluble
MSLESYVPNNEAKFPENISYGSMGGPTFSTVISELGGGKEQRKVNWTHSRNRYNVAYNTASSDQCSALISFFYAHRGKALPFRFKDWSDYTATGQNIGVGDGKSLNFQLVKRYHAGQYSYVRKISRPVVGTVKMSLGEVSQEYERDYSVDYNSGVVTFAVPPAHNATIHADFEFDVLVRFDTDFLAFAMEAHGNYGCHGVSLVEVSEEGHHHHHH	soluble
MHHHHHHENLYFQSNAMAKSRLLLSELLDQLSFALCIVRNDYVIVKVNEYFESRVIFDGETMQGKNILELFPESADYLKRKIDTALVIESSSFSSWEQKPHLLPFKSSRPVSGEEEQMYQNLEVIPIHSEDGTIEHVCLCVYDVTIQASQQQ	soluble
MIPQIQTLQRLMKATKAARHTKMVNNLDMPFLASRLFVVPHMLASTKLDIILNALAPRLFAGEKFPIEAYSQGNTEAFRPPETYVVQNNIAIIPVHGTLVRRSAWLGALSGLTSYEGLRASFREAIAQPDVNAVLLDIDSGGGEAGGIFDLVEEFQTLSKQYAKPIWAHANEFACSAAYAIACAASQIWIARTGVVGSIGVVCAHLDQSLADEKQGLKWTFVFEGDHKTHGNSHEPLSDTAQIKMQADCALLYEMFVDWVAKNRPLSADAIRDTKAETFIGIQALELGLADAQGTLAQALEALTDSISQTPTATKEGQNTWHAHNTAPKKMMMKKLSTSSTKTKRTKTRATLMKTSTKTKMRTKINRKA	not soluble
AHHHHHHGSKTFLTEQQIKVLMLRAKGYKQSEIAKILGTSRANVSILEKRAMEKIEKARNTLLLWEQINSKVIVEIKAGEDIFSIPEKFFKKADKVGVKVPYSTAEIITFLVEHAPVEDRLAKRDFVLFLDSKNKLRIGDCLVIEEIKED	soluble
MGSSGGGGSGGGGVTADIGTGLADALTAPLDHKDKGLKSLTLEDSISQNGTLTLSAQGAEKTYGNGDSLNTGKLKNDKVSRFDFIRQIEVDGQLITLESGEFQVYKQSHSALTALQTEQEQDPEHSEKMVAKRRFRIGDIAGEHTSFDKLPKDVMATYRGTAFGSDDAGGKLTYTIDFAAKQGHGKIEHLKSPELNVDLAVAYIKPDEKHHAVISGSVLYNQDEKGSYSLGIFGEKAQEVAGSAEVETANGIHHIGLAAKQ	soluble
MGSDKIHHHHHHMSETVTESYIGSAIVYIDGRDCGNVSGVKLAIDQETKSLPNYRGGGGNADEVTLIKAVKLSGTFYDFNNDNLALAMRGKIDVLTAAAVVDEDITAVLDGLAPTVHMIDTSVAPVVKNTAGDSTYVLDEDYVVSAAGIRALSGGAITAGQALKLSYTSQAGNALQALTESGKTVSVVVDGINDSTGKPWTLKFYKWKPTPTSGLDLIGTDYGSFDIEGAVLADSSIVATGKSKFFVRSAA	not soluble
MSDVTVVNCPTCGKPVVWGEISPFRPFCSKRCQLIDLGEWAAEEKRIASSGDQSDSDDWSEER	not soluble
MDVQLPYNVKIEAFEGPLDLLLHLINRYEIDIYDIPVAQITEQYMAYIHAMQELELDIASEYLVMAATLLAIKSKMLLPPSNEEAVDGDIEWGDDGDPREELTQRLLEYKKFKEAARELKRREEERALLFTKPPSDLSAYADEKKAAPLDVNVYDMLGALSKLLRRKKLQKPMRAKISRQDISVEQRMAEILHELKQANGRKNFYELFPSYDRSYIVVTFLAILELMKQDEIIVEQERNFSDLFLAVKPAG	not soluble
MIEERFDAIVVGAGMAGNAAALTMAKRGLKVLQIERGEYPGSKNVQGAILYADMLEKLVPDFREDAPLERHLVEQRFWMMDGKSHTGLHHRSEDFNEEKPNRYTIIRAQFDKWLSSKAQEAGAIVLCETTVKELVQDAYGKVIGVITDREGGQVHADVVVLAEGVNGLLGTKAELRERPTPENVALAVKEMHFLPRETIEARFNLKGDEGVVIEAAGTISAGMTGMGFIYTNKESISIGIGCLVSDFQKTGETPYGLLERFKKHPSVAPLIEGSEVKEYAGHLIPEGGYNAIPQLYGDGWVVVGDAAQLNNAMHREGSNLAMTSGRIAAEAIFQVKSRKDPMTKENLALYKKMLDDSFVIKDLKKYKDMPDLLHIRSQNFFLTYPQLVNKALQNFVRVDGTPKIEKEKTTIKSFVSARSWGGLFGDAFRFARAWR	not soluble
